± gives the uncertainty stated by the source.
Experiment: self-splicing fitness, log relative to wild type (ln ratio); higher = more splicing; Tetrahymena group I intron in knt gene, E. coli kanamycin selection, DiMSum; sequences stand for … in CUCUCU…GGAGGGAAAAGUUAUCAGGCAUGCACCUGGUAGCUAGUCUUUAAACCAAUAGAUUGCAUCGGUUUAAAAGGCAAGACCGUCAAAUUGCGGGAAAGGGGUCAACAGCCGUUCAGUACCAAGUCUCAGGGGAAACUUUGAGAUGGCCUUGCAAAGGGUAUGGUAAUAAGCUGACGGACAUGGUCCUAACCACGCAGCCAAGUCCUAAGUCAACAGAUCUUCUGUUGAUAUGGAUGCAGUUCACAGACUAAAUGUCGGUCGGGGAAGAUGUAUUCUUCUCAUAAGAUAUAGUCGGACCUCUCCUUAAUGGGAGCUAGCGGAUGAAGUGAUGCAACACUGGAGCCGCUGGGAACUAAUUUGUAUGCGAAAGUAUAUUGAUUAGUUUUGGAGUACUCGUGGUCG
Outline: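 A randomised library covering all eight P1ex-region intron nucleotides was built with the intron in the knt kanamycin-resistance gene on pET-22b(+) and held in E. coli BL21(DE3). Cells were grown overnight at 37°C or 30°C on LB agar, with or without 25 μg/mL kanamycin, plus 100 μg/mL carbenicillin, 50 μM IPTG and 0.2% rhamnose, and pooled colonies were amplicon-sequenced on an Illumina HiSeq 2500. DiMSum fitness is the error-weighted combination of wild-type-normalised replicate fold changes, kanamycin versus none.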

Sequence | self-splicing fitness (ln) (30 °C) | self-splicing fitness (ln) (37 °C)
CCUUAGCAAUAUUACGUAGC | -2.7 ± 0.18 | -1.8 ± 0.21
AACGAGCAAUAUUACGUCAC | -4.01 ± 0.23 | -1.83 ± 0.22
UUUGAGCAAUAUUACGCUGA | -2.58 ± 0.34 | 
CAAUAGCAAUAUUACGGUUG | -2.6 ± 0.12 | -1.67 ± 0.12
AGGGAGCAAUAUUACGUCUU | -2.53 ± 0.15 | -0.226 ± 0.15
CGUAAGCAAUAUUACGGUUA | -2.29 ± 0.12 | -1.72 ± 0.14
UGAAAGCAAUAUUACGUAUA | -1.56 ± 0.13 | -1.28 ± 0.12
CUGAAGCAAUAUUACGUAAC |  | -1.22 ± 0.24
UGCUAGCAAUAUUACGACUA | -0.649 ± 0.16 | -0.872 ± 0.14
UGAGAGCAAUAUUACGCGAU | -3.4 ± 0.33 | -2.24 ± 0.39
AAAUAGCAAUAUUACGUGCC | -1.46 ± 0.084 | -0.919 ± 0.09
CUUAAGCAAUAUUACGAUGG | -1.17 ± 0.082 | -0.43 ± 0.11
AGGGAGCAAUAUUACGAACC | -1.52 ± 0.23 | -1.48 ± 0.29
GGUCAGCAAUAUUACGGGGU | -3.37 ± 0.12 | -0.793 ± 0.086
GACCAGCAAUAUUACGCAAU | -0.846 ± 0.062 | -0.343 ± 0.077
AUUUAGCAAUAUUACGCUCC | -1.4 ± 0.47 | 
CCUGAGCAAUAUUACGAUUC | -3.56 ± 0.27 | 
CUCUAGCAAUAUUACGGAUC | -3.4 ± 0.21 | -3.33 ± 0.33
GCGAAGCAAUAUUACGUGGG | -3.87 ± 0.24 | -2.67 ± 0.26
GGCGAGCAAUAUUACGAAGU | -2.81 ± 0.44 | -1.21 ± 0.19
GUUGAGCAAUAUUACGUUAU | -3.37 ± 0.18 | -0.445 ± 0.17
AAAAAGCAAUAUUACGUUAC | -2.57 ± 0.14 | -1.91 ± 0.15
GGCCAGCAAUAUUACGCUGU | -1.74 ± 0.08 | -1.37 ± 0.11
ACGUAGCAAUAUUACGAUAA | -1.52 ± 0.13 | -1.51 ± 0.18
GCUCAGCAAUAUUACGGAUC | -0.0202 ± 0.09 | -0.0789 ± 0.11

Sequence | self-splicing fitness (ln) (30 °C) | self-splicing fitness (ln) (37 °C)
UGUUAGCAAUAUUACGGCGC | -2.65 ± 0.21 | -2.22 ± 0.27
CGUGAGCAAUAUUACGUAUA | -2.71 ± 0.18 | -1.55 ± 0.18
CAUGAGCAAUAUUACGUGCC | -3.97 ± 0.33 | -2.47 ± 0.32
UGCGAGCAAUAUUACGCGGC | -3.44 ± 0.33 | -3.46 ± 0.46
ACCUAGCAAUAUUACGACUG | -2.84 ± 0.15 | -1.46 ± 0.18
AACAAGCAAUAUUACGUAGA | -2.88 ± 0.089 | -0.993 ± 0.077
AUCGAGCAAUAUUACGGGUA | -2.85 ± 0.16 | -2.15 ± 0.14
AUAUAGCAAUAUUACGACAG | -2.12 ± 0.19 | -1.51 ± 0.27
GCGGAGCAAUAUUACGCAAC | -2.35 ± 0.48 | 
ACAAAGCAAUAUUACGGCCU | -0.338 ± 0.071 | 0.0409 ± 0.1
CGUGAGCAAUAUUACGCGUG | -2 ± 0.13 | -0.684 ± 0.1
CUUCAGCAAUAUUACGGGCC | -1.78 ± 0.22 | 
GCGGAGCAAUAUUACGAAUA |  | -3.02 ± 0.4
CACAAGCAAUAUUACGCGGU | -3.66 ± 0.15 | -2.04 ± 0.12
ACUUAGCAAUAUUACGGUGA | -1.76 ± 0.15 | -1.56 ± 0.15
GUACAGCAAUAUUACGUUUC | -3.44 ± 0.14 | -1.87 ± 0.14
UCAUAGCAAUAUUACGCCUC | -2.43 ± 0.31 | -1.04 ± 0.2
AACUAGCAAUAUUACGUGCG | -0.832 ± 0.067 | -0.0538 ± 0.078
GAUAAGCAAUAUUACGUACC | -0.984 ± 0.2 | -0.641 ± 0.21
GCGGAGCAAUAUUACGUAAC | -1.54 ± 0.34 | 
GGCCAGCAAUAUUACGGAUG | -0.5 ± 0.08 | -0.503 ± 0.077
GCCCAGCAAUAUUACGUGGC | -3.51 ± 0.22 | -1.39 ± 0.19
CCGUAGCAAUAUUACGAGCU | -3.28 ± 0.22 | -3.35 ± 0.24
AACGAGCAAUAUUACGCCAA | -2.5 ± 0.19 | -3.1 ± 0.22
UCGCAGCAAUAUUACGCCUC |  | -2.36 ± 0.39

Sequence | self-splicing fitness (ln) (30 °C) | self-splicing fitness (ln) (37 °C)
ACGUAGCAAUAUUACGUUGU | -3.07 ± 0.11 | -2.01 ± 0.14
AAUUAGCAAUAUUACGUACU | -0.151 ± 0.089 | 0.263 ± 0.13
GGAGAGCAAUAUUACGGGAA | -2.58 ± 0.33 | -2.58 ± 0.38
AAGUAGCAAUAUUACGGGGG | -2.88 ± 0.26 | -3.2 ± 0.35
CUUAAGCAAUAUUACGCCUA | -1.91 ± 0.38 | 
GUGUAGCAAUAUUACGCCGC | -3 ± 0.46 | -2.79 ± 0.44
GAUCAGCAAUAUUACGGCCC | -1.65 ± 0.21 | -0.61 ± 0.2
UAUAAGCAAUAUUACGCACC | -1.82 ± 0.3 | -1.42 ± 0.3
CAAUAGCAAUAUUACGGACA | -2.44 ± 0.16 | -1.5 ± 0.15
CGAGAGCAAUAUUACGAGUU | -3.56 ± 0.34 | -2.18 ± 0.34
CGUCAGCAAUAUUACGCAAG | -0.161 ± 0.07 | -0.63 ± 0.091
UAACAGCAAUAUUACGUGUG | -1.23 ± 0.042 | -0.692 ± 0.055
AAGAAGCAAUAUUACGCAUG | -1.63 ± 0.13 | -0.526 ± 0.13
ACGGAGCAAUAUUACGCGGU | -2.86 ± 0.25 | -1.03 ± 0.31
ACGGAGCAAUAUUACGUAAG | -3.18 ± 0.2 | -1.82 ± 0.24
UACGAGCAAUAUUACGGCCU | -3.35 ± 0.18 | -3.77 ± 0.46
UUAGAGCAAUAUUACGCUCG | -1.98 ± 0.23 | 
AUUUAGCAAUAUUACGGUGA | -1.17 ± 0.27 | -1.7 ± 0.19
ACUAAGCAAUAUUACGCGAA | -1.57 ± 0.13 | -1.22 ± 0.17
AUGUAGCAAUAUUACGGUAC | -3.47 ± 0.38 | -1.89 ± 0.3
GUAGAGCAAUAUUACGUGAU | -2.29 ± 0.2 | -1.36 ± 0.19
CCUCAGCAAUAUUACGGGGG | -4.13 ± 0.28 | -2.9 ± 0.23
CUGGAGCAAUAUUACGAUAU | -2.36 ± 0.35 | -2.54 ± 0.41
CAAGAGCAAUAUUACGCUAA | -3.93 ± 0.27 | -1.52 ± 0.21
GUGCAGCAAUAUUACGUUAC | -3.66 ± 0.33 | -2.93 ± 0.38

Sequence | self-splicing fitness (ln) (30 °C) | self-splicing fitness (ln) (37 °C)
CCAGAGCAAUAUUACGAACC | -2.33 ± 0.28 | -1.77 ± 0.38
CAUCAGCAAUAUUACGUGAC | -3.66 ± 0.19 | -1.2 ± 0.14
GAAUAGCAAUAUUACGCUUA | -1.5 ± 0.17 | -0.146 ± 0.17
AAGAAGCAAUAUUACGAGCC | -2.58 ± 0.2 | -2.58 ± 0.29
CAUUAGCAAUAUUACGCCAA | -2.88 ± 0.33 | -2.63 ± 0.48
ACUAAGCAAUAUUACGCGUG | -1.58 ± 0.098 | -0.684 ± 0.095
CACGAGCAAUAUUACGGGUG | -3.79 ± 0.21 | -2.25 ± 0.18
GCGCAGCAAUAUUACGACCG | -1.37 ± 0.18 | -0.215 ± 0.21
CCGCAGCAAUAUUACGGAUU | -3.8 ± 0.14 | -2.75 ± 0.16
ACCUAGCAAUAUUACGCCCG | -1.73 ± 0.27 | -1.13 ± 0.28
CCUCAGCAAUAUUACGCCCC |  | -1.39 ± 0.35
GCUGAGCAAUAUUACGAAAG | -1.75 ± 0.2 | -1.46 ± 0.23
AGUGAGCAAUAUUACGGAUU | -3.48 ± 0.26 | -1.28 ± 0.21
AUCUAGCAAUAUUACGUUAA | -1.84 ± 0.23 | -1.82 ± 0.34
UUCUAGCAAUAUUACGGUCU |  | -3.7 ± 0.36
AAGCAGCAAUAUUACGAGCU | -1.2 ± 0.079 | -0.815 ± 0.083
CGUGAGCAAUAUUACGGUGA | -2.84 ± 0.31 | -2.04 ± 0.38
GACCAGCAAUAUUACGGUUC | -5.29 ± 0.25 | -2.73 ± 0.14
AGCCAGCAAUAUUACGUAAA | -3.03 ± 0.12 | -1.55 ± 0.13
CCUAAGCAAUAUUACGGAAU | -3.6 ± 0.25 | -2.48 ± 0.19
GUUGAGCAAUAUUACGUAGU | -2.05 ± 0.15 | -1.31 ± 0.18
UCAUAGCAAUAUUACGUGGG | -3.39 ± 0.16 | -1.75 ± 0.098
UGACAGCAAUAUUACGAUUA | -0.338 ± 0.059 | 0.419 ± 0.066
UCCUAGCAAUAUUACGACUU | -3.74 ± 0.46 | -2.74 ± 0.3
